For this assay, the target named is T1, EBOV sGP (Mayinga) (Zaire ebolavirus, Mayinga, GenBank …, UniProt P60170).
T1 construct: source: FreeStyle-293-F, transiently transfected, purified (Strep-Tactin, SEC)
Put plainly: ELISA. The following applies: both partners purified.

From publication PMC8133395 (Cell reports, 2021) come the findings set out here.

T1 sequence (P60170 33-314): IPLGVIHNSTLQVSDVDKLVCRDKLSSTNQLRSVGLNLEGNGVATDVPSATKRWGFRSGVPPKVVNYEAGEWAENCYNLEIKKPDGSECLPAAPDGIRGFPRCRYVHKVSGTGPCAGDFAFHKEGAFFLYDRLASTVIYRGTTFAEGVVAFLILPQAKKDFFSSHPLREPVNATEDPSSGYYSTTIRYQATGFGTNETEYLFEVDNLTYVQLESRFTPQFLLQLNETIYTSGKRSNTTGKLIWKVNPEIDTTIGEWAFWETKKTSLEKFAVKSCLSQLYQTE

B1: EBOV-548 (antibody, V domains shown)
VH: QVQVEESGGGVVQPGGSLRLSCAASGFMFSNYGMHWVRQAPGKGLEWMAFIRYDDSKKFYADSVKGRFTISRDNSKNTLYLQMNSLRAEDTALYYCAKELLQVYTSAWGEGHSYYYALDVWGLGTAVTVSS
VL: DIQMTQSPSSVSASVGDRVTITCRASQDISNWLAWYQQKPGKAPELLIYTASILQSGVSSRFSGSGSGTDFTLTISSLQPEDSATYYCQQGKSFPYTFGQGTKLEIK
Turning to B1, the binding result is recorded as “binds”.
